{"source": "patent US20230272413A1", "about": "(UNITED STATES OF AMERICA AS REPRESENTED BY THE SECRETARY OF …, published 2023)", "biological_target": "the molecule itself", "experiment": "SEC-MALS, homodimer", "data": [{"protein": "PLRV ^NRTD (other, Selenomethionine-labeled protein was used for phasing; also called Potato leafroll virus ^NRTD; WT PLRV ^NRTD) KHERFIAYVGIPMLTIQARENDDQIILGSLGSQRMKYIEDENQNYTNISSEYYSQSSMQAVPMYYFNVPKGQWSVDISCEGYQPTSSTSDPHRGRSDGMIAYSNADSDYWNVGEADGVKISKLRNDNTYRQGHPELEINSCHFREGQLLERDATISFHVEAPTDGRFFLVGPAIQKTAKYNYTISYGDWTDRDMELGLITVVLDEHLEGTGSANRVRRPPREGHIYMAS", "values": [{"measurement": "binding result", "value": "binds"}]}]}
